This is an account of results in paper PMC7082078 (Cell reports, 2020).

Holding throughout (assay): AUC
Series [1] addresses human pcdh10 EC5–EC6 fragment (human).
In series [2] the target is Xenopus pcdh8.2 (PAPC) full ectodomain (EC1–EC6) (Xenopus).
In series [3] the target is human pcdh17 full ectodomain (EC1–EC6) (human).
Series [4] concerns the target human pcdh10 EC1–EC4 fragment (human).
In series [5] the target is human pcdh12 full ectodomain fragment (EC1–EC6) (human).
In series [6] the target is Xenopus pcdh8.1 full ectodomain (EC1–EC6) (Xenopus).
The target in series [7] is human pcdh7 EC1–EC4 fragment (human).
Series [8] has as its target mouse pcdh7 EC1–EC4 fragment (mouse).
Series [9] has as its target human pcdh18 full ectodomain (EC1–EC6) (human).
The target of series [10] is human pcdh10 EC1–EC3 fragment (human).
The target of series [11] is human pcdh10 full ectodomain (EC1–EC6) (human).
In series [12] the target is human pcdh9 EC1–EC4 fragment (human).
Series [13] addresses human pcdh11Y full ectodomain (EC1–EC7) (human).
Series [14] addresses human pcdh8 EC5–EC6 fragment (human).
Series [15] deals with mouse pcdh7 full ectodomain (EC1–EC7) (mouse).
The series “AUC” concerns the molecule itself.

Where only a bound is given, the exact number is not on record here.

In series [1], “human pcdh10 EC5–EC6 fragment (domain or fragment)” displayed a Kd of more than 1000 µM.

For “Xenopus pcdh8.2 (PAPC) full ectodomain (EC1–EC6) (domain or fragment)”, the stoichiometry N in [2] turned out to be 2.

“human pcdh17 full ectodomain (EC1–EC6) (domain or fragment)”: in [3], the Kd came to 4.8 µM and the stoichiometry N amounted to 2.

Consider “human pcdh10 EC1–EC4 fragment (domain or fragment)”, for which, in [4], the Kd stood at 0.68 µM and the stoichiometry N turned out to be 2.

On to “human pcdh12 full ectodomain fragment (EC1–EC6) (domain or fragment)”, for which the stoichiometry N in series [5] turned out to be 2.

On to “Xenopus pcdh8.1 full ectodomain (EC1–EC6) (domain or fragment)”, for which, in [6], the Kd came to 3.5 µM and the stoichiometry N turned out to be 2.

In series [7], “human pcdh7 EC1–EC4 fragment (domain or fragment)” had a Kd of 2.7 µM and a stoichiometry N of 2.

In series [8], “mouse pcdh7 EC1–EC4 fragment (domain or fragment)” yielded a Kd of 4.1 µM and a stoichiometry N of 2.

Regarding “human pcdh18 full ectodomain (EC1–EC6) (domain or fragment)”, in series [9], the Kd was found to be 2.7 µM and the stoichiometry N was determined as 2.

Turning to “human pcdh10 EC1–EC3 fragment (domain or fragment)”, in series [10], the Kd worked out at 280 µM and the stoichiometry N was 2.

In series [11], “human pcdh10 full ectodomain (EC1–EC6) (domain or fragment)” showed a Kd of 3.6 µM and a stoichiometry N of 2.

In [12], “human pcdh9 EC1–EC4 fragment (domain or fragment)” returned a Kd of 2 µM and a stoichiometry N of 2.

As for “human pcdh11Y full ectodomain (EC1–EC7) (domain or fragment)”, in [13], the Kd was 7.8 µM and the stoichiometry N came to 2.

In the case of “human pcdh8 EC5–EC6 fragment (domain or fragment)”, in [14], the Kd was more than 1000 µM.

In series [15], “mouse pcdh7 full ectodomain (EC1–EC7) (domain or fragment)” yielded a dissociation constant Kd of 8.2 µM and a stoichiometry N of 2.

B1: human pcdh1 EC1–EC4 fragment (domain or fragment)
chain: TRVVYKVPEEQPPNTLIGSLAADYGFPDVGHLYKLEVGAPYLRVDGKTGDIFTTETSIDREGLRECQNQLPGDPCILEFEVSITDLVQNGSPRLLEGQIEVQDINDNTPNFASPVITLAIPENTNIGSLFPIPLASDRDAGPNGVASYELQAGPEAQELFGLQVAEDQEEKQPQLIVMGNLDRERWDSYDLTIKVQDGGSPPRASSALLRVTVLDTNDNAPKFERPSYEAELSENSPIGHSVIQVKANDSDQGANAEIEYTFHQAPEVVRRLLRLDRNTGLITVQGPVDREDLSTLRFSVLAKDRGTNPKSARAQVVVTVKDMNDNAPTIEIRGIGLVTHQDGMANISEDVAEETAVALVQVSDRDEGENAAVTCVVAGDVPFQLRQASETGSDSKKKYFLQTTTPLDYEKVKDYTIEIVAVDSGNPPLSSTNSLKVQVVD
Turning to B1, in “AUC”, binding was characterised by a dissociation constant (Kd) of 0.53 µM and the “stoichiometry N” value was found to be 2.

B2: human pcdh19 full ectodomain (EC1–EC6) (domain or fragment)
chain: LINLKYSVEEEQRAGTVIANVAKDAREAGFALDPRQASAFRVVSNSAPHLVDINPSSGLLVTKQKIDRDLLCRQSPKCIISLEVMSSSMEICVIKVEIKDLNDNAPSFPAAQIELEISEAASPGTRIPLDSAYDPDSGSFGVQTYELTPNELFGLEIKTRGDGSRFAELVVEKSLDRETQSHYSFRITALDGGDPPRLGTVGLSIKVTDSNDNNPVFSESTYAVSVPENSPPNTPVIRLNASDPDEGTNGQVVYSFYGYVNDRTRELFQIDPHSGLVTVTGALDYEEGHVYELDVQAKDLGPNSIPAHCKVTVSVLDTNDNPPVINLLSVNSELVEVSESAPPGYVIALVRVSDRDSGLNGRVQCRLLGNVPFRLQEYESFSTILVDGRLDREQHDQYNLTIQARDGGVPMLQSAKSFTVLITDENDNHPHFSKPYYQVIVQENNTPGAYLLSVSARDPDLGLNGSVSYQIVPSQVRDMPVFTYVSINPNSGDIYALRSFNHEQTKAFEFKVLAKDGGLPSLQSNATVRVIILDVNDNTPVITAPPLINGTAEVYIPRNSGIGYLVTVVKAEDYDEGENGRVTYDMTEGDRGFFEIDQVNGEVRTTRTFGESSKSSYELIVVAHDHGKTSLSASALVLIYLSPALDAQESMGSVNLS
Take B2: in the series “AUC”, the dissociation constant Kd came to 0.48 µM and the “stoichiometry N” value is 2.

B3: human pcdh1 full ectodomain (EC1–EC7) (domain or fragment)
chain: TRVVYKVPEEQPPNTLIGSLAADYGFPDVGHLYKLEVGAPYLRVDGKTGDIFTTETSIDREGLRECQNQLPGDPCILEFEVSITDLVQNGSPRLLEGQIEVQDINDNTPNFASPVITLAIPENTNIGSLFPIPLASDRDAGPNGVASYELQAGPEAQELFGLQVAEDQEEKQPQLIVMGNLDRERWDSYDLTIKVQDGGSPPRASSALLRVTVLDTNDNAPKFERPSYEAELSENSPIGHSVIQVKANDSDQGANAEIEYTFHQAPEVVRRLLRLDRNTGLITVQGPVDREDLSTLRFSVLAKDRGTNPKSARAQVVVTVKDMNDNAPTIEIRGIGLVTHQDGMANISEDVAEETAVALVQVSDRDEGENAAVTCVVAGDVPFQLRQASETGSDSKKKYFLQTTTPLDYEKVKDYTIEIVAVDSGNPPLSSTNSLKVQVVDVNDNAPVFTQSVTEVAFPENNKPGEVIAEITASDADSGSNAELVYSLEPEPAAKGLFTISPETGEIQVKTSLDREQRESYELKVVAADRGSPSLQGTATVLVNVLDCNDNDPKFMLSGYNFSVMENMPALSPVGMVTVIDGDKGENAQVQLSVEQDNGDFVIQNGTGTILSSLSFDREQQSTYTFQLKAVDGGVPPRSAYVGVTINVLDENDNAPYITAPSNTSHKLLTPQTRLGETVSQVAAEDFDSGVNAELIYSIAGGNPYGLFQIGSHSGAITLEKEIERRHHGLHRLVVKVSDRGKPPRYGTALVHLYVNETLANRTLLETLLGHSLDTPLDIDIAGDPEYERSKQRGN
Take B3: in “AUC”, the Kd worked out at 1.2 µM and the “stoichiometry N” value came out at 2.

B4: human pcdh9 full ectodomain (EC1–EC7) (domain or fragment)
chain: QELIYTIREELPENVPIGNIPKDLNISHINAATGTSASLVYRLVSKAGDAPLVKVSSSTGEIFTTSNRIDREKLCAGASYAEENECFFELEVVILPNDFFRLIKIKIIVKDTNDNAPMFPSPVINISIPENTLINSRFPIPSATDPDTGFNGVQHYELLNGQSVFGLDIVETPEGEKWPQLIVQQNLDREQKDTYVMKIKVEDGGTPQKSSTAILQVTVSDVNDNRPVFKEGQVEVHIPENAPVGTSVIQLHATDADIGSNAEIRYIFGAQVAPATKRLFALNNTTGLITVQRSLDREETAIHKVTVLASDGSSTPARATVTINVTDVNDNPPNIDLRYIISPINGTVYLSEKDPVNTKIALITVSDKDTDVNGKVICFIEREVPFHLKAVYDNQYLLETSSLLDYEGTKEFSFKIVASDSGKPSLNQTALVRVKLEDENDNPPIFNQPVIELSVSENNRRGLYLTTISATDEDSGKNADIVYQLGPNASFFDLDRKTGVLTASRVFDREEQERFIFTVTARDNGTPPLQSQAAVIVTVLDENDNSPKFTHNHFQFFVSENLPKYSTVGVITVTDADAGENKAVTLSILNDNDNFVLDPYSGVIKSNVSFDREQQSSYTFDVKATDGGQPPRSSTAKVTINVMDVNDNSPVVISPPSNTSFKLVPLSAIPGSVVAEVFAVDVDTGMNAELKYTIVSGNNKGLFRIDPVTGNITLEEKPAPTDVGLHRLVVNISDLGYPKSLHTLVLVFLYVNDTAGNASYIYDLIRRTMETPLDRNIGDSSQPYQNEDYLT
Turning to B4, in “AUC”, the Kd is 2.03 µM and the “stoichiometry N” value worked out at 2.

Broadly, the Kd is the equilibrium constant for the complex coming apart. The low end stands for higher affinity, the high end for lower affinity. Usually stoichiometry N stands for a count of units in the complex or per binding partner.
